Test results as given in patent publication US20200087373A1 (UNIVERSITY OF COPENHAGEN, published 2020).
Ends that are not written are not given here. * marks the point of attachment. C16 diacid = O=C(O)CCCCCCCCCCCCCCC(=O)*

How the values were obtained:
[1] = biological target: T1, human GIP receptor (human, UniProt P48546 22-466); assay: 125I-hGIP competition binding, COS-7 cells expressing hGIPR;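 further: nonspecific binding taken as radioligand bound by untransfected cells, binding buffer with or without 2% HSA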
T1 construct: whole, on cells; also called hGIPR
T1 sequence (looked up): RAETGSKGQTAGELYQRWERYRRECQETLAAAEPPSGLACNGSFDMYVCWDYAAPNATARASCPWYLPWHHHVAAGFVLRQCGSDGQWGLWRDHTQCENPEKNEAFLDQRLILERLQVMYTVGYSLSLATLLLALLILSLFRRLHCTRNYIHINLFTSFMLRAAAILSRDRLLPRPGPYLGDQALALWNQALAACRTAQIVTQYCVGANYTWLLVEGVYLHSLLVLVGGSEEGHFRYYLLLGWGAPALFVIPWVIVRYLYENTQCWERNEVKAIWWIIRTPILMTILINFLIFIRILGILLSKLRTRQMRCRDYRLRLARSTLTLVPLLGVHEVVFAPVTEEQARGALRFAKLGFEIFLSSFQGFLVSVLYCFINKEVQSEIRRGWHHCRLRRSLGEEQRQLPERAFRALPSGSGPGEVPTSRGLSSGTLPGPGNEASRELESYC
Experimental: (§1) After incubation, the cells were washed twice in ice-cold binding buffer (+/−2% HSA) and lysed using 200 mM NaOH with 1% SDS for 30 min. Nonspecific binding was determined as the binding of radioactive ligand to untransfected cells.

[2] = biological target: T1, human GIP receptor; assay: 125I-hGIP competition binding, COS-7/hGIPR, 0.1% casein;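 further: nonspecific binding defined as radioligand binding measured on untransfected cells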
Experimental: as §1

[3] = biological target: T1, human GIP receptor; assay: 125I-hGIP competition binding, COS-7/hGIPR, 2% HSA;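 further: nonspecific binding defined as radioligand binding to untransfected cells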
Experimental: as §1

[4] = biological target: T1, human GIP receptor; assay: cell-based or functional assay
[5] = biological target: T1, human GIP receptor; assay: IC50 with 2% HSA over IC50 with 0.1% casein, 125I-hGIP competition, COS-7/hGIPR
Experimental: as §1

B1: AT177 [hGIP(5-30)NH2[D15K]-C16diacid/15] (peptide)
peptide: TFISDYSIAMK(C16 diacid)KIHQQDFVNWLLAQK-NH2
modifications: N-terminus assumed
SMILES: CC[C@H](C)[C@H](NC(=O)[C@H](CO)NC(=O)[C@H](Cc1ccc(O)cc1)NC(=O)[C@H](CC(=O)O)NC(=O)[C@H](CO)NC(=O)[C@@H](NC(=O)[C@H](Cc1ccccc1)NC(=O)[C@@H](N)[C@@H](C)O)[C@@H](C)CC)C(=O)N[C@@H](C)C(=O)N[C@@H](CCSC)C(=O)N[C@@H](CCCCNC(=O)CCCCCCCCCCCCCCC(=O)O)C(=O)N[C@@H](CCCCN)C(=O)N[C@H](C(=O)N[C@@H](Cc1c[nH]cn1)C(=O)N[C@@H](CCC(N)=O)C(=O)N[C@@H](CCC(N)=O)C(=O)N[C@@H](CC(=O)O)C(=O)N[C@@H](Cc1ccccc1)C(=O)N[C@H](C(=O)N[C@@H](CC(N)=O)C(=O)N[C@@H](Cc1c[nH]c2ccccc12)C(=O)N[C@@H](CC(C)C)C(=O)N[C@@H](CC(C)C)C(=O)N[C@@H](C)C(=O)N[C@@H](CCC(N)=O)C(=O)N[C@@H](CCCCN)C(N)=O)C(C)C)[C@@H](C)CC
IC50 [1]: 134 nM | log IC50 [1]: -6.9 log M | IC50 [2]: 135 nM | logIC50 [2]: -6.87 log M | IC50 [3]: 513 nM | logIC50 [3]: -6.29 log M | cAMP agonism [4]: 59 nM | cAMP agonism, EC50 (log) [4]: -7 log M | cAMP agonism, Emax [4]: 30 | cAMP antagonism [4]: 59 nM | cAMP antagonism, log [4]: -7.2 log M | Fold change HSA (2%)/Casein (0.1%) [5]: 3.8 fold

B2: AT178 [hGIP(5-30)NH2[I17K]-C16diacid/17] (peptide)
peptide: TFISDYSIAMDKK(C16 diacid)HQQDFVNWLLAQK-NH2
modifications: N-terminus assumed
SMILES: CC[C@H](C)[C@H](NC(=O)[C@H](CO)NC(=O)[C@H](Cc1ccc(O)cc1)NC(=O)[C@H](CC(=O)O)NC(=O)[C@H](CO)NC(=O)[C@@H](NC(=O)[C@H](Cc1ccccc1)NC(=O)[C@@H](N)[C@@H](C)O)[C@@H](C)CC)C(=O)N[C@@H](C)C(=O)N[C@@H](CCSC)C(=O)N[C@@H](CC(=O)O)C(=O)N[C@@H](CCCCN)C(=O)N[C@@H](CCCCNC(=O)CCCCCCCCCCCCCCC(=O)O)C(=O)N[C@@H](Cc1c[nH]cn1)C(=O)N[C@@H](CCC(N)=O)C(=O)N[C@@H](CCC(N)=O)C(=O)N[C@@H](CC(=O)O)C(=O)N[C@@H](Cc1ccccc1)C(=O)N[C@H](C(=O)N[C@@H](CC(N)=O)C(=O)N[C@@H](Cc1c[nH]c2ccccc12)C(=O)N[C@@H](CC(C)C)C(=O)N[C@@H](CC(C)C)C(=O)N[C@@H](C)C(=O)N[C@@H](CCC(N)=O)C(=O)N[C@@H](CCCCN)C(N)=O)C(C)C
IC50 [1]: 66 nM | log IC50 [1]: -7.2 log M | IC50 [2]: 66.1 nM | logIC50 [2]: -7.2 log M | IC50 [3]: 195 nM | logIC50 [3]: -6.7 log M | cAMP agonism, Emax [4]: 0 | cAMP antagonism [4]: 33 nM | cAMP antagonism, log [4]: -7.5 log M | Fold change HSA (2%)/Casein (0.1%) [5]: 3 fold

B3: AT180 [hGIP(5-30)NH2[Q20K]-C16diacid/20] (peptide)
peptide: TFISDYSIAMDKIHQK(C16 diacid)DFVNWLLAQK-NH2
modifications: N-terminus assumed
SMILES: CC[C@H](C)[C@H](NC(=O)[C@H](CO)NC(=O)[C@H](Cc1ccc(O)cc1)NC(=O)[C@H](CC(=O)O)NC(=O)[C@H](CO)NC(=O)[C@@H](NC(=O)[C@H](Cc1ccccc1)NC(=O)[C@@H](N)[C@@H](C)O)[C@@H](C)CC)C(=O)N[C@@H](C)C(=O)N[C@@H](CCSC)C(=O)N[C@@H](CC(=O)O)C(=O)N[C@@H](CCCCN)C(=O)N[C@H](C(=O)N[C@@H](Cc1c[nH]cn1)C(=O)N[C@@H](CCC(N)=O)C(=O)N[C@@H](CCCCNC(=O)CCCCCCCCCCCCCCC(=O)O)C(=O)N[C@@H](CC(=O)O)C(=O)N[C@@H](Cc1ccccc1)C(=O)N[C@H](C(=O)N[C@@H](CC(N)=O)C(=O)N[C@@H](Cc1c[nH]c2ccccc12)C(=O)N[C@@H](CC(C)C)C(=O)N[C@@H](CC(C)C)C(=O)N[C@@H](C)C(=O)N[C@@H](CCC(N)=O)C(=O)N[C@@H](CCCCN)C(N)=O)C(C)C)[C@@H](C)CC
IC50 [1]: 106 nM | log IC50 [1]: -7 log M | IC50 [2]: 457 nM | logIC50 [2]: -6.3 log M | IC50 [3]: 1700 nM | logIC50 [3]: -5.8 log M | cAMP agonism, Emax [4]: 0 | cAMP antagonism [4]: 37 nM | cAMP antagonism, log [4]: -7.4 log M | Fold change HSA (2%)/Casein (0.1%) [5]: 3.7 fold

B4: AT179 [hGIP(5-30)NH2[Q19K]-C16diacid/19] (peptide)
peptide: TFISDYSIAMDKIHK(C16 diacid)QDFVNWLLAQK-NH2
modifications: N-terminus assumed
SMILES: CC[C@H](C)[C@H](NC(=O)[C@H](CO)NC(=O)[C@H](Cc1ccc(O)cc1)NC(=O)[C@H](CC(=O)O)NC(=O)[C@H](CO)NC(=O)[C@@H](NC(=O)[C@H](Cc1ccccc1)NC(=O)[C@@H](N)[C@@H](C)O)[C@@H](C)CC)C(=O)N[C@@H](C)C(=O)N[C@@H](CCSC)C(=O)N[C@@H](CC(=O)O)C(=O)N[C@@H](CCCCN)C(=O)N[C@H](C(=O)N[C@@H](Cc1c[nH]cn1)C(=O)N[C@@H](CCCCNC(=O)CCCCCCCCCCCCCCC(=O)O)C(=O)N[C@@H](CCC(N)=O)C(=O)N[C@@H](CC(=O)O)C(=O)N[C@@H](Cc1ccccc1)C(=O)N[C@H](C(=O)N[C@@H](CC(N)=O)C(=O)N[C@@H](Cc1c[nH]c2ccccc12)C(=O)N[C@@H](CC(C)C)C(=O)N[C@@H](CC(C)C)C(=O)N[C@@H](C)C(=O)N[C@@H](CCC(N)=O)C(=O)N[C@@H](CCCCN)C(N)=O)C(C)C)[C@@H](C)CC
IC50 [1]: 453 nM | log IC50 [1]: -6.3 log M | IC50 [2]: 10.5 nM | logIC50 [2]: -7.98 log M | IC50 [3]: 38 nM | logIC50 [3]: -7.42 log M | cAMP agonism [4]: 89 nM | cAMP agonism, EC50 (log) [4]: -7 log M | cAMP agonism, Emax [4]: 32 | cAMP antagonism [4]: 89 nM | cAMP antagonism, log [4]: -7.1 log M | Fold change HSA (2%)/Casein (0.1%) [5]: 3.6 fold

B5: AT181 [hGIP(5-30)NH2[D21K]-C16diacid/21] (peptide)
peptide: TFISDYSIAMDKIHQQK(C16 diacid)FVNWLLAQK-NH2
modifications: N-terminus assumed
SMILES: CC[C@H](C)[C@H](NC(=O)[C@H](CO)NC(=O)[C@H](Cc1ccc(O)cc1)NC(=O)[C@H](CC(=O)O)NC(=O)[C@H](CO)NC(=O)[C@@H](NC(=O)[C@H](Cc1ccccc1)NC(=O)[C@@H](N)[C@@H](C)O)[C@@H](C)CC)C(=O)N[C@@H](C)C(=O)N[C@@H](CCSC)C(=O)N[C@@H](CC(=O)O)C(=O)N[C@@H](CCCCN)C(=O)N[C@H](C(=O)N[C@@H](Cc1c[nH]cn1)C(=O)N[C@@H](CCC(N)=O)C(=O)N[C@@H](CCC(N)=O)C(=O)N[C@@H](CCCCNC(=O)CCCCCCCCCCCCCCC(=O)O)C(=O)N[C@@H](Cc1ccccc1)C(=O)N[C@H](C(=O)N[C@@H](CC(N)=O)C(=O)N[C@@H](Cc1c[nH]c2ccccc12)C(=O)N[C@@H](CC(C)C)C(=O)N[C@@H](CC(C)C)C(=O)N[C@@H](C)C(=O)N[C@@H](CCC(N)=O)C(=O)N[C@@H](CCCCN)C(N)=O)C(C)C)[C@@H](C)CC
IC50 [1]: 48 nM | log IC50 [1]: -7.3 log M | IC50 [2]: 105 nM | logIC50 [2]: -7 log M | IC50 [3]: 550 nM | logIC50 [3]: -6.3 log M | cAMP agonism [4]: 2 nM | cAMP agonism, EC50 (log) [4]: -9 log M | cAMP agonism, Emax [4]: 9 | cAMP antagonism [4]: 16 nM | cAMP antagonism, log [4]: -7.8 log M | Fold change HSA (2%)/Casein (0.1%) [5]: 5.2 fold

B6: AT182 [hGIP(5-30)NH2[F22K]-C16diacid/22] (peptide)
peptide: TFISDYSIAMDKIHQQDK(C16 diacid)VNWLLAQK-NH2
modifications: N-terminus assumed
SMILES: CC[C@H](C)[C@H](NC(=O)[C@H](CO)NC(=O)[C@H](Cc1ccc(O)cc1)NC(=O)[C@H](CC(=O)O)NC(=O)[C@H](CO)NC(=O)[C@@H](NC(=O)[C@H](Cc1ccccc1)NC(=O)[C@@H](N)[C@@H](C)O)[C@@H](C)CC)C(=O)N[C@@H](C)C(=O)N[C@@H](CCSC)C(=O)N[C@@H](CC(=O)O)C(=O)N[C@@H](CCCCN)C(=O)N[C@H](C(=O)N[C@@H](Cc1c[nH]cn1)C(=O)N[C@@H](CCC(N)=O)C(=O)N[C@@H](CCC(N)=O)C(=O)N[C@@H](CC(=O)O)C(=O)N[C@@H](CCCCNC(=O)CCCCCCCCCCCCCCC(=O)O)C(=O)N[C@H](C(=O)N[C@@H](CC(N)=O)C(=O)N[C@@H](Cc1c[nH]c2ccccc12)C(=O)N[C@@H](CC(C)C)C(=O)N[C@@H](CC(C)C)C(=O)N[C@@H](C)C(=O)N[C@@H](CCC(N)=O)C(=O)N[C@@H](CCCCN)C(N)=O)C(C)C)[C@@H](C)CC
IC50 [1]: 962 nM | log IC50 [1]: -6 log M | IC50 [2]: 47.9 nM | logIC50 [2]: -7.3 log M | IC50 [3]: 141 nM | logIC50 [3]: -6.9 log M | cAMP agonism [4]: 634 nM | cAMP agonism, EC50 (log) [4]: -6 log M | cAMP agonism, Emax [4]: 13 | cAMP antagonism [4]: 634 nM | cAMP antagonism, log [4]: -6.2 log M | Fold change HSA (2%)/Casein (0.1%) [5]: 3 fold
